# Assay: soluble on expression in E. coli; label from the status in PepcDB or PDB records
row,Sequence,soluble on expression in E. coli
1,AHHHHHHGSPDVYEPIMGAFSLARRLWKMIVEKKGLPTGDDVASLLENLGFERVCTGSGLAVFRNRFVIALLIPRENMIVVDFLSSSGELSDALELIAYYDKEIECYVVEILPSNELEYEENLGIEPVIIDGKTFELRSYPVLGDFKQGKDKVVLKIDREVYELWKESGKLDVCPVCGGHLRWKQGKALCTECGIEVVVDEEH,soluble
2,MSLSGTITFSTGTRAGVYQKYGELLRTELRKDMPGLDVRLMTSAGSQENVERVASGEADFTIAAADAVETYKLAGSPGAEGLRGVTRLYDDYVQLVVPSDSDIQSVRDLRGKRVAIGLPNSGVRLIATRLLKAVGIDPETDITPRADGIDTGPGRLGDELDAFFWSGGVPTDGLKEIAESSAFRFVPIGDDLVTKLHRSGGATRYYRTTNMPESAYPTVQNGAVVPTMAVSNLLVTRADVDPRLTEWLTRTVLDSRDGIGAHVHSAQLVDLRTAIYTDPLELHEGARRYYRSVKEGHHHHHH,soluble
3,MGNMFGSSLASLFFLWATIQQIFPNHLKIAIKEFFLSTIQQISFAKRFSDKFINFFSPYVQINFSEYEDYRVNHAFDPIETYLGAKATDKAKHLRASQVRESKGLVLKRDETKVRDEYEGIRVWWEMETDSAGYKTLKLTFHRRSRDIVTNSYIKYVVEEGKSIDAKNKKMKLFTNNPSSHWGSSKTSFWRYIDFEHPATFETLAMDPKKKEQILNDLAAFNNGKDYYKKIGKAWKRGYLLYGPPGTGKSTMIAAMANLLNYSIYDLELTAIQNNSELRKILTATSNKSIIVIEDIDCSLDLTGKRKKKESNLMIWRKDGDQDNEENKSFVTLSGLLNFIDGIWSACGQERIIVFTTNHLAKLDPALIRRGRMDMHIELSYCTFEAFKTLAKNYLDLDSHPLFSKIESLMKETNIAPADVAENLMKKNRETDADGSLNDLIESLERKKKVQIAQVDEHKEYSNKIVEAFRKLF,soluble
4,MDQAELSIEQVLKRDIPWETYMNTKLVSAKGLQLLRRYDKKPESARAQLLDEDGPAYVHLFVSILRDIFKEETVEYVLALIYEMLSANPTRARLFHDESLANEDTYEPFLRLLWKGNWFIQEKSCKILAWIISARPKAGNAVIGNGIDDVLKGLVEWLCAQLKQPSHPTRGVPIAISCLSSLLKEPVVRSSFVQADGVKLLVPLISPASTQQSIQLLYETCLCIWLLSYYEPAIEYLATSRTMQRLTEVVKHSTKEKVVRVVILTFRNLLPKGTFGAQMVDLGLPHIIHSLKTQAWSDEDLLDALNQLEEGLKDKIKKLSSFDKYKQEVLLGHLDWNPMHKETNFWRENVTCFEENDFQILRVLLTILDTSSDPRSLAVACFDISQFIQYHAAGRVIVADLKAKERVMKLINHENAEVTKNAILCIQRLLLGAKYASFLQA,soluble
5,MGSDKIHHHHHHMKTIAIRDVTGIMEPLPGFSVVRTDGSDGQRSIKLNGYKTTNNQYGYQFVKNENTVVYDDEEYIIKTHRERTYRKGVGVEATAIHRIFDDLRNNYIYDEKTGTLRLDAMLSFALEGSGYTFEIDTTDLPASVRVENFGWNNSLALFRDILEKFGAEFDYKGKKIYVAKKFGIQRDEPFLRYRFNVKDPEKEIDTSSFATYIRGYGKKDDKGNYLFAEYTSPLAKIYGIKHADPVKDERYTDKDSLLAAMKKQLNDNIDISLTFTAIELESMGLRDIKKGDYVWCVIEPFDLNVQLRAVSREDYSDETKSPTFTFGTITKKASDIIASFNTTKKAVDKVIDTSTGKIKDSAIDTTGLTTKSEFQSHVDNKIVHITAEERAAWNAASNSIGDLTFITWSTPTLKNGWIQYTANTESYPIQYGKDAIGTVNIRGAVSSGVVGSSTPVFTLPAGFRPPFPHLFIGVSSVATDGTPQYFRGIIKTNGDVCIENISNKDTPNQFIGIYTQFKAI,not soluble
6,MSLIEELFDQMSKGNLLLIDMTYDMFNGMQTYIGDPPFKHEYFRKGNKYGEVTLSTVYMGLHSGTHIDLPLHFVPNGESVEKFNIIQFIGYGNVLDLSYKKLGEPISSNDLKKFDDRIKENYVVMLYTGFSATRGKEDFLYNWPYLDSNGADYLVSKKIRAVGIESMSIAGWAGKEYPPRTNWDEVVYVHHKLLSNDIIILESVNNMKKVLEECKNGEALFFYAPLKIVGAEGGPTRLFAICEKREGHHHHHH,not soluble
7,MDVSLPCIKIQVQTRYIEEQSNPEYQRFVFAYLITIKNLSSQTVQLMSRRWLITDADGKQTVVEGDGVVGEQPRIKANDEYTYSSGTALDTPVGVMQGQYLMIDEQGESFTVEIEPFRLAVPHVLNLEHHHHHH,soluble
